Tested on: MS2 coat protein
Experiment: apparent KD of MS2 coat protein; designed switch direction (-1 OFF switch, 1 ON switch): 1; higher = weaker reporter binding
Method in brief: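 Designed RNA switches with common flanks were transcribed on Illumina chips by stalled E. coli RNA polymerase and titrated with SNAP-549-labelled MS2 coat protein, from 0.7 or 1.5 nM doubling to 3 µM, in Tris-HCl pH 7.5 buffer with KCl, MgCl2, BSA, DTT, tRNA and Tween-20. Steps lasted 0.8–1.5 h (lowest) to 10–20 min (highest). Titrations ran without input, with 200 uM small-molecule ligand, or with an oligonucleotide input. Normalised cluster fluorescence was curve-fitted, and apparent KD is the per-design median over clusters.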

[1] = Eterna round: R95, input ligand: FMN 200 uM
[2] = Eterna round: R95, input ligand: microRNA oligo, concentration not stated
[3] = Eterna round: R95, input ligand: none
[4] = input ligand: microRNA oligo, concentration not stated

Row | Sequence | apparent KD of MS2 coat protein [1] [nM] | apparent KD of MS2 coat protein [2] [nM] | apparent KD of MS2 coat protein [3] [nM] | apparent KD of MS2 coat protein (input ligand: FMN 200 uM) [nM] | apparent KD of MS2 coat protein [4] [nM] | apparent KD of MS2 coat protein (input ligand: none) [nM]
1 | AGUCCAGCCUGAGCUGGACAAAAGCAUGUACAUGAGGAUCACCCAUGUUCAUGUACAAGCUUUUUGCUCGUCGGAAU [Mat - hsa-mir-208a - Mod of JL - 49] (puzzle: Sensor for hsa-mir-208a) | 762 | 16.5 | 905 | – | – | –
2 | GGAGCUGGCACUGAGGAUAUUCAUAUUUAAACAUGAGGAUCACCCAUGUAGGCCAGAAGGCCUUGGGAGAAGGCAGGUCGGCUCG [salish99_ss2_r3_085] (puzzle: Same State 2) | 24.6 | 254 | 354 | – | – | –
3 | AAGUAACAUGAGGAUCACCCAUGUGAGGUGAGCGUAGGAUAUCGAGGAGGAAGGGUGGAGCGAGAAGGACGAGAGG [JR_SS1_Sub099] (puzzle: Same State 1) | 375 | 189 | 471 | – | – | –
4 | AAGAAAGACGCAGGAUAUCAGUGCAAACCGCACUGAGAAGGGUGAGACAUGAGGAUCACCCAUGUAACACGGCAAAACACCGUG [Teinre] (Eterna round: R96, puzzle: Same State NG 1) | – | – | – | 1240 | 49.3 | 191
5 | CCAUAACUGUGAGGAUAUUGUUGCGUUUAGUGACGAGAAGGCAUUCAUGUGAUAUAUACAUACAUGAGGAUCACCCAUGUUGUA [NG 1 30P] (Eterna round: R96, puzzle: Same State NG 1) | – | – | – | – | 21.4 | –
6 | GACAAUCUAUCUGAGGAUAUCAUGAUAAUAACAUGAGGAUCACCCAUGUGCAGGAAAACUGCAUAUGAGAAGGCAGAUAGAUUGA [Mat - Same State 2 - Mod - D14] (puzzle: Same State 2) | 34.2 | 62.3 | 294 | – | – | –
7 | GGUGGGUUACUACCCACACAUGAGGAUCACCCAUGUAUUGGGAAGGAUAUGGUGCCUAUUUGGUACCAGAAGGUCCUGAAGGUG [SS-NG3-LRO17] (Eterna round: R96, puzzle: Same State NG 3) | – | – | – | 980 | 571 | 1770
8 | AUUAUUAAUGCAGGAUAUGAUUAACAUGAGGAUCACCCAUGUGGUGUUGUGAGUAAGGAGAGUGAUCAGAAGGGCAUUUUUGUU [JMF's solution 14] (Eterna round: R96, puzzle: Same State NG 2) | – | – | – | 811 | 330 | 629
9 | AGUCCAGCAAGAGCUGGACAAAAGCAUGUACAUGAGGAUCACCCAUGUUCAUGUACAAGCUUUUUGCUCGUCUUAAA [Mat - hsa-mir-208a - Mod of JL - 57] (puzzle: Sensor for hsa-mir-208a) | 413 | 16.5 | 659 | – | – | –
10 | GCUAGAAUUAAAGCCAACAUGAGGAUCACCCAUGUAUGUUGGCAGGAUAUCGUUUGCAAAGCAAACGAGAAGGGCCAAACUAGC [Mat - Same State NG 3 - JL Mod - D2] (Eterna round: R96, puzzle: Same State NG 3) | – | – | – | 43.2 | 94.1 | 125
11 | UUAAUUUAUUGAGGAUAUUAUGUCGACUGAGUUGACAUGAGGAUCACCCAUGUGAGAAGUGGUAUUAAGAAGGCAAUAUUCAUA [JR_SSNG2_Sub087] (Eterna round: R96, puzzle: Same State NG 2) | – | – | – | 39.8 | 118 | 115
12 | AGUCCAGCCUGAGCUGGACAAAAGCAUGUACAUGAGGAUCACCCAUGUUCAUGUACAAGCUUUUUGCUCGUCUAAAG [Mat - hsa-mir-208a - Mod of JL - 66] (puzzle: Sensor for hsa-mir-208a) | 506 | 16.6 | 880 | – | – | –
